Measured values as given in patent publication US20260049138A1 (Chugai, published 2026).

Target: T1, CD3ε homodimer protein (human, UniProt P07766 23-126, limits assumed, sulfo-tag or biotin label in the ECL assays; amine-coupled to the chip in SPR)
T1 construct: also called human CD3ε homodimer protein; CD3 (CD3ε)
Assay: SPR Biacore T200; CD3ε homodimer on CM4 chip;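 note: Single-residue variant antibodies injected as analyte over CD3ε homodimer immobilized by amine coupling, run at 25 °C in HBS-EP+ buffer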

T1 sequence (P07766 23-126 limits assumed): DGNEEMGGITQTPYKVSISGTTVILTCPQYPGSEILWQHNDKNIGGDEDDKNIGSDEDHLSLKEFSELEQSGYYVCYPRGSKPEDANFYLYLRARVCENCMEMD

| Binder | ratio of amounts bound Z=Y/X (altered form / CE115HA000) |
| --- | --- |
| CE115HA000 G98Q one-arm antibody (antibody, human IgG1, kappa, L234A L235A, N297A, name in Kabat numbering) heavy: QVQLVESGGGVVQPGRSLRLSCAASGFTFSNAWMHWVRQAPGKGLEWVAQIKAKSNNYATYYAESVKGRFTISRDDSKNSLYLQMNSLKTEDTAVYYCRYVHYQAYYGVDAWGQGTTVTVSSASTKGPSVFPLAPSSKSTSGGTAALGCLVKDYFPEPVTVSWNSGALTSGVHTFPAVLQSSGLYSLSSVVTVPSSSLGTQTYICNVNHKPSNTKVDKKVEPKSCDKTHTCPPCPAPEAAGGPSVFLFPPKPKDTLMISRTPEVTCVVVDVSHEDPEVKFNWYVDGVEVHNAKTKPREEQYASTYRVVSVLTVLHQDWLNGKEYKCKVSNKALPAPIEKTISKAKGQPREPQVYTLPPSRCELTKNQVSLSCAVKGFYPSDIAVEWESNGQPENNYKTTPPVLDSDGSFFLVSKLTVDKSRWQQGNVFSCSVMHEALHNHYTQKSLSLSPDYKDDDDK EPKSSDKTHTCPPCPAPELLGGPSVFLFPPKPKDTLMISRTPEVTCVVVDVSHEDPEVKFNWYVDGVEVHNAKTKPREEQYNSTYRVVSVLTVLHQDWLNGKEYKCKVSNKALPAPIEKTISKAKGQPREPQVCTLPPSRDELTKNQVSLWCLVKGFYPSDIAVEWESNGQPENNYKTTPPVLDSDGSFFLYSKLTVDKSRWQQGNVFSCSVMHEALHNRYTQKSLSLSP light: DIVMTQSPLSLPVTPGEPASISCRSSQSLVHSNRNTYLHWYQQKPGQAPRLLIYKVSNRFSGVPDRFSGSGSGTDFTLKISRVEAEDVGVYYCGQGTQVPYTFGQGTKLEIKRTVAAPSVFIFPPSDEQLKSGTASVVCLLNNFYPREAKVQWKVDNALQSGNSQESVTEQDSKDSTYSLSSTLTLSKADYEKHKVYACEVTHQGLSSPVTKSFNRGEC | 1.22 |
| CE115HA000 G98R one-arm antibody (antibody, human IgG1, kappa, L234A L235A, N297A, name in Kabat numbering) heavy: QVQLVESGGGVVQPGRSLRLSCAASGFTFSNAWMHWVRQAPGKGLEWVAQIKAKSNNYATYYAESVKGRFTISRDDSKNSLYLQMNSLKTEDTAVYYCRYVHYRAYYGVDAWGQGTTVTVSSASTKGPSVFPLAPSSKSTSGGTAALGCLVKDYFPEPVTVSWNSGALTSGVHTFPAVLQSSGLYSLSSVVTVPSSSLGTQTYICNVNHKPSNTKVDKKVEPKSCDKTHTCPPCPAPEAAGGPSVFLFPPKPKDTLMISRTPEVTCVVVDVSHEDPEVKFNWYVDGVEVHNAKTKPREEQYASTYRVVSVLTVLHQDWLNGKEYKCKVSNKALPAPIEKTISKAKGQPREPQVYTLPPSRCELTKNQVSLSCAVKGFYPSDIAVEWESNGQPENNYKTTPPVLDSDGSFFLVSKLTVDKSRWQQGNVFSCSVMHEALHNHYTQKSLSLSPDYKDDDDK EPKSSDKTHTCPPCPAPELLGGPSVFLFPPKPKDTLMISRTPEVTCVVVDVSHEDPEVKFNWYVDGVEVHNAKTKPREEQYNSTYRVVSVLTVLHQDWLNGKEYKCKVSNKALPAPIEKTISKAKGQPREPQVCTLPPSRDELTKNQVSLWCLVKGFYPSDIAVEWESNGQPENNYKTTPPVLDSDGSFFLYSKLTVDKSRWQQGNVFSCSVMHEALHNRYTQKSLSLSP light: DIVMTQSPLSLPVTPGEPASISCRSSQSLVHSNRNTYLHWYQQKPGQAPRLLIYKVSNRFSGVPDRFSGSGSGTDFTLKISRVEAEDVGVYYCGQGTQVPYTFGQGTKLEIKRTVAAPSVFIFPPSDEQLKSGTASVVCLLNNFYPREAKVQWKVDNALQSGNSQESVTEQDSKDSTYSLSSTLTLSKADYEKHKVYACEVTHQGLSSPVTKSFNRGEC | 2.96 |
| CE115HA000 G98S one-arm antibody (antibody, human IgG1, kappa, L234A L235A, N297A, name in Kabat numbering) heavy: QVQLVESGGGVVQPGRSLRLSCAASGFTFSNAWMHWVRQAPGKGLEWVAQIKAKSNNYATYYAESVKGRFTISRDDSKNSLYLQMNSLKTEDTAVYYCRYVHYSAYYGVDAWGQGTTVTVSSASTKGPSVFPLAPSSKSTSGGTAALGCLVKDYFPEPVTVSWNSGALTSGVHTFPAVLQSSGLYSLSSVVTVPSSSLGTQTYICNVNHKPSNTKVDKKVEPKSCDKTHTCPPCPAPEAAGGPSVFLFPPKPKDTLMISRTPEVTCVVVDVSHEDPEVKFNWYVDGVEVHNAKTKPREEQYASTYRVVSVLTVLHQDWLNGKEYKCKVSNKALPAPIEKTISKAKGQPREPQVYTLPPSRCELTKNQVSLSCAVKGFYPSDIAVEWESNGQPENNYKTTPPVLDSDGSFFLVSKLTVDKSRWQQGNVFSCSVMHEALHNHYTQKSLSLSPDYKDDDDK EPKSSDKTHTCPPCPAPELLGGPSVFLFPPKPKDTLMISRTPEVTCVVVDVSHEDPEVKFNWYVDGVEVHNAKTKPREEQYNSTYRVVSVLTVLHQDWLNGKEYKCKVSNKALPAPIEKTISKAKGQPREPQVCTLPPSRDELTKNQVSLWCLVKGFYPSDIAVEWESNGQPENNYKTTPPVLDSDGSFFLYSKLTVDKSRWQQGNVFSCSVMHEALHNRYTQKSLSLSP light: DIVMTQSPLSLPVTPGEPASISCRSSQSLVHSNRNTYLHWYQQKPGQAPRLLIYKVSNRFSGVPDRFSGSGSGTDFTLKISRVEAEDVGVYYCGQGTQVPYTFGQGTKLEIKRTVAAPSVFIFPPSDEQLKSGTASVVCLLNNFYPREAKVQWKVDNALQSGNSQESVTEQDSKDSTYSLSSTLTLSKADYEKHKVYACEVTHQGLSSPVTKSFNRGEC | 1.01 |
| CE115HA000 G98T one-arm antibody (antibody, human IgG1, kappa, L234A L235A, N297A, name in Kabat numbering) heavy: QVQLVESGGGVVQPGRSLRLSCAASGFTFSNAWMHWVRQAPGKGLEWVAQIKAKSNNYATYYAESVKGRFTISRDDSKNSLYLQMNSLKTEDTAVYYCRYVHYTAYYGVDAWGQGTTVTVSSASTKGPSVFPLAPSSKSTSGGTAALGCLVKDYFPEPVTVSWNSGALTSGVHTFPAVLQSSGLYSLSSVVTVPSSSLGTQTYICNVNHKPSNTKVDKKVEPKSCDKTHTCPPCPAPEAAGGPSVFLFPPKPKDTLMISRTPEVTCVVVDVSHEDPEVKFNWYVDGVEVHNAKTKPREEQYASTYRVVSVLTVLHQDWLNGKEYKCKVSNKALPAPIEKTISKAKGQPREPQVYTLPPSRCELTKNQVSLSCAVKGFYPSDIAVEWESNGQPENNYKTTPPVLDSDGSFFLVSKLTVDKSRWQQGNVFSCSVMHEALHNHYTQKSLSLSPDYKDDDDK EPKSSDKTHTCPPCPAPELLGGPSVFLFPPKPKDTLMISRTPEVTCVVVDVSHEDPEVKFNWYVDGVEVHNAKTKPREEQYNSTYRVVSVLTVLHQDWLNGKEYKCKVSNKALPAPIEKTISKAKGQPREPQVCTLPPSRDELTKNQVSLWCLVKGFYPSDIAVEWESNGQPENNYKTTPPVLDSDGSFFLYSKLTVDKSRWQQGNVFSCSVMHEALHNRYTQKSLSLSP light: DIVMTQSPLSLPVTPGEPASISCRSSQSLVHSNRNTYLHWYQQKPGQAPRLLIYKVSNRFSGVPDRFSGSGSGTDFTLKISRVEAEDVGVYYCGQGTQVPYTFGQGTKLEIKRTVAAPSVFIFPPSDEQLKSGTASVVCLLNNFYPREAKVQWKVDNALQSGNSQESVTEQDSKDSTYSLSSTLTLSKADYEKHKVYACEVTHQGLSSPVTKSFNRGEC | 1.05 |
| CE115HA000 G98Y one-arm antibody (antibody, human IgG1, kappa, L234A L235A, N297A, name in Kabat numbering) heavy: QVQLVESGGGVVQPGRSLRLSCAASGFTFSNAWMHWVRQAPGKGLEWVAQIKAKSNNYATYYAESVKGRFTISRDDSKNSLYLQMNSLKTEDTAVYYCRYVHYYAYYGVDAWGQGTTVTVSSASTKGPSVFPLAPSSKSTSGGTAALGCLVKDYFPEPVTVSWNSGALTSGVHTFPAVLQSSGLYSLSSVVTVPSSSLGTQTYICNVNHKPSNTKVDKKVEPKSCDKTHTCPPCPAPEAAGGPSVFLFPPKPKDTLMISRTPEVTCVVVDVSHEDPEVKFNWYVDGVEVHNAKTKPREEQYASTYRVVSVLTVLHQDWLNGKEYKCKVSNKALPAPIEKTISKAKGQPREPQVYTLPPSRCELTKNQVSLSCAVKGFYPSDIAVEWESNGQPENNYKTTPPVLDSDGSFFLVSKLTVDKSRWQQGNVFSCSVMHEALHNHYTQKSLSLSPDYKDDDDK EPKSSDKTHTCPPCPAPELLGGPSVFLFPPKPKDTLMISRTPEVTCVVVDVSHEDPEVKFNWYVDGVEVHNAKTKPREEQYNSTYRVVSVLTVLHQDWLNGKEYKCKVSNKALPAPIEKTISKAKGQPREPQVCTLPPSRDELTKNQVSLWCLVKGFYPSDIAVEWESNGQPENNYKTTPPVLDSDGSFFLYSKLTVDKSRWQQGNVFSCSVMHEALHNRYTQKSLSLSP light: DIVMTQSPLSLPVTPGEPASISCRSSQSLVHSNRNTYLHWYQQKPGQAPRLLIYKVSNRFSGVPDRFSGSGSGTDFTLKISRVEAEDVGVYYCGQGTQVPYTFGQGTKLEIKRTVAAPSVFIFPPSDEQLKSGTASVVCLLNNFYPREAKVQWKVDNALQSGNSQESVTEQDSKDSTYSLSSTLTLSKADYEKHKVYACEVTHQGLSSPVTKSFNRGEC | 2.22 |
| CE115HA000 G100bD one-arm antibody (antibody, human IgG1, kappa, L234A L235A, N297A, name in Kabat numbering) heavy: QVQLVESGGGVVQPGRSLRLSCAASGFTFSNAWMHWVRQAPGKGLEWVAQIKAKSNNYATYYAESVKGRFTISRDDSKNSLYLQMNSLKTEDTAVYYCRYVHYGAYYDVDAWGQGTTVTVSSASTKGPSVFPLAPSSKSTSGGTAALGCLVKDYFPEPVTVSWNSGALTSGVHTFPAVLQSSGLYSLSSVVTVPSSSLGTQTYICNVNHKPSNTKVDKKVEPKSCDKTHTCPPCPAPEAAGGPSVFLFPPKPKDTLMISRTPEVTCVVVDVSHEDPEVKFNWYVDGVEVHNAKTKPREEQYASTYRVVSVLTVLHQDWLNGKEYKCKVSNKALPAPIEKTISKAKGQPREPQVYTLPPSRCELTKNQVSLSCAVKGFYPSDIAVEWESNGQPENNYKTTPPVLDSDGSFFLVSKLTVDKSRWQQGNVFSCSVMHEALHNHYTQKSLSLSPDYKDDDDK EPKSSDKTHTCPPCPAPELLGGPSVFLFPPKPKDTLMISRTPEVTCVVVDVSHEDPEVKFNWYVDGVEVHNAKTKPREEQYNSTYRVVSVLTVLHQDWLNGKEYKCKVSNKALPAPIEKTISKAKGQPREPQVCTLPPSRDELTKNQVSLWCLVKGFYPSDIAVEWESNGQPENNYKTTPPVLDSDGSFFLYSKLTVDKSRWQQGNVFSCSVMHEALHNRYTQKSLSLSP light: DIVMTQSPLSLPVTPGEPASISCRSSQSLVHSNRNTYLHWYQQKPGQAPRLLIYKVSNRFSGVPDRFSGSGSGTDFTLKISRVEAEDVGVYYCGQGTQVPYTFGQGTKLEIKRTVAAPSVFIFPPSDEQLKSGTASVVCLLNNFYPREAKVQWKVDNALQSGNSQESVTEQDSKDSTYSLSSTLTLSKADYEKHKVYACEVTHQGLSSPVTKSFNRGEC | 0.27 |
